In patent US6642353B1, “Peptide ligands for the erythropoietin receptor” (Chugai Seiyaku Kabushiki Kaisha, priority 2000, dated 2003):

T1: chimeric Ig-EPOR protein (human; murine, UniProt P19235 25-250)
T1 construct: extracellular domain; Secreted from COS-7 cells transfected with pcDNA3-IgG1-EPOR; major species about 59 kDa; also called IgG-EPOR; chimeric receptor; not shown: hinge region, CH2 and CH3 domains of the murine IgG1 heavy chain
T1 sequence (looked up): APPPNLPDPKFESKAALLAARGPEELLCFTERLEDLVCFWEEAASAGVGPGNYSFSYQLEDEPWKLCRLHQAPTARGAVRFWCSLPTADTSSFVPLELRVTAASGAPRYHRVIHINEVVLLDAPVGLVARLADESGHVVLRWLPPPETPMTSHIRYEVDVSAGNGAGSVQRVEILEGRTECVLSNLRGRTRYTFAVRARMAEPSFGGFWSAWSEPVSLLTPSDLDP

B1: phage clone B1 (peptide)
chain: DVHECRPGWVGHCKDWLSDEYASNRRSPEPHRNYPIPP
notes: not shown: M13 phage pIII coat protein
B2: phage clone B3 (peptide)
chain: GKEVCRRGWVGHCQEWPMDEYTRNPSHPVPHNSRHKTP
notes: as for B1
B3: phage clone B6 (peptide)
chain: SLEPCRGGWVGHCNEWQRDEYAINPKWPNAPIEDPNPL
notes: as for B1
B4: phage clone B9 (peptide)
chain: DFEDCQGGWVGHCNDWLGDEYARHPRYGATQTLSVNRH
notes: as for B1
B5: phage clone B10 (peptide)
chain: DLEVCRGGWVGHCKDWIWDEYARNPRYPDPQRKEVKSP
notes: as for B1
B6: phage clone B13 (peptide)
chain: EGEVCLPGWVGHCKYWLMDEYANIPRNPTPRSNELKPP
notes: as for B1
B7: phage clone B15 (peptide)
chain: QVDTCTRGWVGHCNAWMGDEYAKTPGLPMPQSDYLKPR
notes: as for B1
B8: phage clone B16 (peptide)
chain: DVEVCRGGWVGHCNAWLRDEYNRQPKKPVQQQVVYSTR
notes: as for B1
B9: phage clone B17 (peptide)
chain: LLQMCSPGWVGHCNDWPRDEYANNPPNPVVDRQALTPP
notes: as for B1
B10: phage clone B18 (peptide)
chain: YSDVCRRGWVGHCEDWLGDEYSSQPSYALPHSTSLNPR
notes: as for B1
B11: phage clone B19 (peptide)
chain: DLEGCRLGWVGHCNVWGGDEYTKRTSHSVPPSHKSKLL
notes: as for B1
B12: phage clone B20 (peptide)
chain: DLAGCRRGWVGHCSEWLRDEYTSNPRYPVAPSYRLQPP
notes: as for B1
B13: phage clone B21 (peptide)
chain: AKVVCRNGWVGHCSAWLTDEYESNPNTRIPNTFDMKTP
notes: as for B1
B14: phage clone N1 (peptide)
chain: RLEDGDEGRVWHSSDLLSDEYASTPSYPLTPNYYEYPP
notes: as for B1
B15: phage clone N2 (peptide)
chain: GWAGCRSGGAGQCKEGAGDEYAENPSYPVPPRKHLNRL
notes: as for B1
B16: phage clone N3 (peptide)
chain: DLNVGCPGYVGHCADWLGDEYPVHPNPEVPQTLNLKPH
notes: as for B1
B17: phage clone N4 (peptide)
chain: ELDMLRGGGVGQSKESLRDEYDHKTSTPVPPNQKLPPP
notes: as for B1
B18: phage clone N5 (peptide)
chain: NSDVTRRGWADHWREWNWDEYASTPTHPASHSSYLNPP
notes: as for B1
B19: phage clone N6 (peptide)
chain: EWVYSRQSWGGQWKDGVRDEYTMTPGDPVANKYSLMTP
notes: as for B1
B20: phage clone N7 (peptide)
chain: EFVVWPRGWVGHCKGCRVDEYSGDPSNLEAQTHDMNFQ
notes: as for B1
B21: phage clone N8 (peptide)
chain: GLNICRPGWVGHCNDSLRDEYATNPRTPGPLSYNLQPT
notes: as for B1
B22: phage clone N9 (peptide)
chain: SVDVCNQGGVGRCNDGLGDEYASKPSYQEAPRYNPNLR
notes: as for B1

Columns and labels:
[1] = biological target: T1, chimeric Ig-EPOR protein; assay: biopanning of the ERB1 evolved library with Ig-EPOR (FIG. 4)
Experimental: The beads were washed three times in TBST (Tris buffered saline containing 0.1% (v/v) TWEEN® 20) and then suspended in 1 ml blocking medium (TBS SUPERBLOCK®). Phage in 100 μl aliquots containing about 1 ×10^10 plaque forming units (pfu) were added to the beads and the mixtures rotated gently for 2 hrs at room temperature. After washing the beads five times in TBST, phage were eluted with 300 μl of 50 mM glycine buffer (pH 2.2) for 10 min at room temperature. Eluted phage were immediately neutralized with 8 μl 2M Tris base that had not been pH-adjusted, mixed and stored at 4° C. Phage isolated by biopanning were amplified by mixing equal volumes of eluted phage and an overnight culture of E. coli strain JS5, diluting the mixture in 20 ml 2xYT containing tetracycline (12.0 μg/ml), and incubating overnight with shaking at 37° C. The resulting phage lysates were cleared of cell debris by centrifugation for 5 min in a microfuge, and 100 μl of the resulting supernatant lysate was used for a subsequent round of biopanning. All phage titering was carried out using JS5 bacteria plated on 2xYT top agar and agar plates.
Several random phage clones also were isolated from the evolved library, to represent non-binding clones.

[2] = biological target: T1, chimeric Ig-EPOR protein; assay: phage ELISA, relative to ERB1
Experimental: To better characterize the phage isolates having binding specificity for the EPOR, we compared the relative affinities of the binding clones presented in FIG. 4, using a phage ELISA procedure. Phage stocks of the binding clones were titered in triplicate to accurately determine the concentration of pfu/ml for each lysate. Different isolates were then assayed by ELISA using normalized phage concentrations so that all clones were tested using equivalent numbers of phage.

Binder | binding result [1] | relative affinity (Rel. Aff., ERB1 = 1.0) [2]
B1 | binds | 
B2 | binds | 
B3 | binds | 
B4 | binds | 
B5 | binds | 
B6 | binds | 
B7 | binds | 
B8 | binds | 
B9 | binds | 
B10 | binds | 
B11 | binds | 
B12 | binds | 
B13 | binds | 
B14 |  | < 0.1
B15 |  | < 0.1
B16 |  | < 0.1
B17 |  | < 0.1
B18 |  | < 0.1
B19 |  | < 0.1
B20 |  | < 0.1
B21 |  | < 0.1
B22 |  | < 0.1
